Source: patent publication US20170095421A1 (published 2017)

Key:
GPIIbIIIa = assay: SPR (Langmuir binding analysis)
Peptide 1 = assay: SPR (Langmuir binding analysis); GPIIbIIIa mimotope
Peptide 2 = assay: as above

B1: Fibrinogen (ligand)
chain 1: ADSGEGDFLAEGGGVRGPRVVERHQSACKDSDWPFCSDEDWNYKCPSGCRMKGLIDEVNQDFTNRINKLKNSLFEYQKNNKDSHSLTTNIMEILRGDFSSANNRDNTYNRVSEDLRSRIEVLKRKVIEKVQHIQLLQKNVRAQLVDMKRLEVDIDIKIRSCRGSCSRALAREVDLKDYEDQQKQLEQVIAKDLLPSRDRQHLPLIKMKPVPDLVPGNFKSQLQKVPPEWKALTDMPQMRMELERPGGNEITRGGSTSYGTGSETESPRNPSSAGSWNSGSSGPGSTGNRNPGSSGTGGTATWKPGSSGPGSTGSWNSGSSGTGSTGNQNPGSPRPGSTGTWNPGSSERGSAGHWTSESSVSGSTGQWHSESGSFRPDSPGSGNARPNNPDWGTFEEVSGNVSPGTRREYHTEKLVTSKGDKELRTGKEKVTSGSTTTTRRSCSKTVTKTVIGPDGHKEVTKEVVTSEDGSDCPEAMDLGTLSGIGTLDGFRHRHPDEAAFFDTASTGKTFPGFFSPMLGEFVSETESRGSESGIFTNTKESSSHHPGIAEFPSRGKSSSYSKQFTSSTSYNRGDSTFESKSYKMADEAGSEADHEGTHSTKRGHAKSRPV
chain 2: QGVNDNEEGFFSARGHRPLDKKREEAPSLRPAPPPISGGGYRARPAKAAATQKKVERKAPDAGGCLHADPDLGVLCPTGCQLQEALLQQERPIRNSVDELNNNVEAVSQTSSSSFQYMYLLKDLWQKRQKQVKDNENVVNEYSSELEKHQLYIDETVNSNIPTNLRVLRSILENLRSKIQKLESDVSAQMEYCRTPCTVSCNIPVVSGKECEEIIRKGGETSEMYLIQPDSSVKPYRVYCDMNTENGGWTVIQNRQDGSVDFGRKWDPYKQGFGNVATNTDGKNYCGLPGEYWLGNDKISQLTRMGPTELLIEMEDWKGDKVKAHYGGFTVQNEANKYQISVNKYRGTAGNALMDGASQLMGENRTMTIHNGMFFSTYDRDNDGWLTSDPRKQCSKEDGGGWWYNRCHAANPNGRYYWGGQYTWDMAKHGTDDGVVWMNWKGSWYSMRKMSMKIRPFFPQQ
chain 3: YVATRDNCCILDERFGSYCPTTCGIADFLSTYQTKVDKDLQSLEDILHQVENKTSEVKQLIKAIQLTYNPDESSKPNMIDAATLKSRKMLEEIMKYEASILTHDSSIRYLQEIYNSNNQKIVNLKEKVAQLEAQCQEPCKDTVQIHDITGKDCQDIANKGAKQSGLYFIKPLKANQQFLVYCEIDGSGNGWTVFQKRLDGSVDFKKNWIQYKEGFGHLSPTGTTEFWLGNEKIHLISTQSAIPYALRVELEDWNGRTSTADYAMFKVGPEADKYRLTYAYFAGGDAGDAFDGFDFGDDPSDKFFTSHNGMQFSTWDNDNDKFEGNCAEQDGSGWWMNKCHAGHLNGVYYQGGTYSKASTPNGYDNGIIWATWKTRWYSMKKTTMKIIPFNRLTIGEGQQHHLGGAKQAGDV
- Kd (GPIIbIIIa): 10.3 nM
- Kd (Peptide 1): 12500 nM
- Kd (Peptide 2): 334 nM
